Laboratory results taken from US20220112268A1.

Legend:
[1] = target: PD-1 on PD-1-positive cells (EL4 cells) (UniProt Q02242); experiment: inhibition of PD-L1-human Fc binding to EL4 cells; reference intact αPD-1
[2] = target: PD-1 on PD-1-positive cells (EL4 cells) (UniProt Q02242); experiment: inhibition of PD-L1-human Fc (10 µg/mL) binding to EL4 cells, flow cytometry, competitor PD-L1-human Fc
[3] = target: PD-1 on PD-1-positive cells (EL4 cells) (UniProt Q02242); experiment: direct binding of Alexa Fluor 647-labeled sample to EL4 cells, flow cytometry, fraction of positive cells
[4] = target: PD-1 on PD-1-positive cells (EL4 cells) (UniProt Q02242); experiment: direct binding to EL4 cells, flow cytometry; reference intact αPD-1
[5] = target: PD-1 on PD-1-positive cells (EL4 cells) (UniProt Q02242); experiment: inhibition of PD-L1-human Fc binding to EL4 cells; reference soluble αPD-1-iTEP fusion
[6] = target: T cell receptor of OT-I T cells (cognate to the SIINFEKL tetramer), on OT-I T cells; experiment: labeled NP incubated with an OT-I/OT-II T cell mixture (1:1); reference free αPD-1 (FIG. 7B)

UniProt Q02242, sequence (Q02242 25-288 limits assumed): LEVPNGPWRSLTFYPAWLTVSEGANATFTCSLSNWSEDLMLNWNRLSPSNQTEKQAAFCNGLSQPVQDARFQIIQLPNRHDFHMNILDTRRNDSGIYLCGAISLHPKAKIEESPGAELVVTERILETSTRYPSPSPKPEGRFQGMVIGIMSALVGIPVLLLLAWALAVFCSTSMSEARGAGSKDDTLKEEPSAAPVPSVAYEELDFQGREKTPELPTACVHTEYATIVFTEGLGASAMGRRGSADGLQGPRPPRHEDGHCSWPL

Substance | fold lower inhibition capacity than intact αPD-1 [1] | EC50 [2] | EC50 [3] | fold smaller EC50 than intact αPD-1 [4] | fold stronger avidity than intact αPD-1 [4] | fold higher inhibition capacity than the soluble αPD-1-iTEP fusion [5] | targeting efficiency (OT-I:OT-II ratio of guided NPs divided by the OT-I:OT-II ratio of free αPD-1) [6]
αPD-1 scFv (recombinant single-chain variable fragment of the anti-PD-1 antibody clone RMP1-14), NH2-Histag(H6)-(GGGSG)3-VH-(GGGSG)4-VL-COOH | 3 fold | 4160 nM | 320 nM | – | – | – | –
αPD-1 NP, the nanoparticle form of the αPD-1-iTEP fusion, self-assembled and crosslinked by disulfide bonds | – | 1190 nM | 39 nM | 3 fold | 4 fold | 3 fold | –
soluble αPD-1-iTEP fusion, αPD-1(scFv) fused to the amphiphilic diblock iTEP (GAGVPG)70-(GVLPGVG)56-(GC)4 | 3 fold | 4590 nM | 400 nM | – | – | – | –
SIINFEKL tetramer-guided αPD-1 NP, nanoparticle assembled from iTEP-αPD-1 and iTEP-tetramer (H2-Kb/SIINFEKL) mixed at a 1-to-10 ratio (from UniProt P22629 37-163; P01901 22-305) | – | – | – | – | – | – | 37.3
intact αPD-1 (anti-programmed death-1 antibody, RMP1-14 clone, IgG from hybridoma ascites) | – | 1320 nM | 110 nM | – | – | – | –
